Numbering of substitutions follows the chain as printed. Like-named read-outs stand apart in the source and are kept apart here. Each block holds one binder with its values, some of them ahead of it.
What was measured:
Test in all cases: SPR
[1] = biological target: T1, FcgRIIb (human, UniProt P31994)
T1 chain: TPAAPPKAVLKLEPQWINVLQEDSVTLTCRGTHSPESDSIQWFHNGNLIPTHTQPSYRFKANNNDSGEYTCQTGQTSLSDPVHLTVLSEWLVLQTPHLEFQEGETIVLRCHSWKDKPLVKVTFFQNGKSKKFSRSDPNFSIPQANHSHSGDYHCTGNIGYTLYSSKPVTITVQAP

[2] = biological target: T2, FcgRIIIaV (human, UniProt P08637)
[3] = biological target: T3, FcgRIIaH (human, UniProt P12318)
T3 chain: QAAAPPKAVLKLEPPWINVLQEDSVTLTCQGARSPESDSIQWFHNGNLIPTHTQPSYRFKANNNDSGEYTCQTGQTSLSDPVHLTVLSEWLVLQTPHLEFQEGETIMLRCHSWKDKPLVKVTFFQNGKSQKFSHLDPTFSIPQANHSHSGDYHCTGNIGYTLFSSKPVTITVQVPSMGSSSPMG

[4] = biological target: T4, FcgRIIaR (human, UniProt P12318)
T4 chain: T3 chain with H134R

[5] = biological target: T1, FcgRIIb
[6] = biological target: T5, FcgRIa (human, UniProt P12314)
T5 chain: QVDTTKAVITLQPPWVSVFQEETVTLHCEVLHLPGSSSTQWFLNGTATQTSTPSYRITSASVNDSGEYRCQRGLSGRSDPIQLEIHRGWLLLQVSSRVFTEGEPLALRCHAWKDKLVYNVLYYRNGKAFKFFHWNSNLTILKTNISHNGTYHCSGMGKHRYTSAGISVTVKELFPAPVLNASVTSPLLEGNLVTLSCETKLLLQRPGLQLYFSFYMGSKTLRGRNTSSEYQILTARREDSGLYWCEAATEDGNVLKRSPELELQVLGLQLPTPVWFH

[7] = biological target: T3, FcgRIIaH
[8] = biological target: T4, FcgRIIaR
[9] = biological target: T2, FcgRIIIaV; remark: listed apart in the source
[10] = biological target: T1, FcgRIIb
[11] = biological target: T5, FcgRIa
[12] = biological target: T4, FcgRIIaR
[13] = biological target: T5, FcgRIa
[14] = biological target: T2, FcgRIIIaV; remark: listed apart in the source
[15] = biological target: T3, FcgRIIaH
[16] = biological target: T4, FcgRIIaR
[17] = biological target: T1, FcgRIIb
[18] = biological target: T2, FcgRIIIaV; remark: listed apart in the source
[19] = biological target: T3, FcgRIIaH
[20] = biological target: T5, FcgRIa
[21] = biological target: T6, mFcgRI (mouse, UniProt P26151)
T6 chain: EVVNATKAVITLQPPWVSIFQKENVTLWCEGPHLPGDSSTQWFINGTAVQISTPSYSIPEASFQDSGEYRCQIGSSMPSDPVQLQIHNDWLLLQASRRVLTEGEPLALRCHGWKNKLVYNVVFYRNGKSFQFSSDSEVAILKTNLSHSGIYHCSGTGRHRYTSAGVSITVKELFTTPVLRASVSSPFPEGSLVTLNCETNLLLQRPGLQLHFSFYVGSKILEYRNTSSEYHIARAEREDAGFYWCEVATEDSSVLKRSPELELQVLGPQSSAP

[22] = biological target: T7, mFcgRIV (mouse, UniProt A0A0B4J1G0)
T7 chain: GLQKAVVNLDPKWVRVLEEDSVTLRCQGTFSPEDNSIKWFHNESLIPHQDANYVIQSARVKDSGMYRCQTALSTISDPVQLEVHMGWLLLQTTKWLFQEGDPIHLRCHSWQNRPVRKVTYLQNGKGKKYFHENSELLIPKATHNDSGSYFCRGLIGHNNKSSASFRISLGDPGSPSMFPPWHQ

T2 sequence (P08637 17-208 F176V): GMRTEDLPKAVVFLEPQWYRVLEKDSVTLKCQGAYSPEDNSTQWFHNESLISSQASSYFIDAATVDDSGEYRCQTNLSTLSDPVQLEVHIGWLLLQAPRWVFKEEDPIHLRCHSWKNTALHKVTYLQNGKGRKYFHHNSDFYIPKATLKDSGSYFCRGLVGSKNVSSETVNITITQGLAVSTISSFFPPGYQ

Kd [1]: 0.0012 µM
Kd [2]: 12 µM
Kd [3]: 1 µM
Kd [4]: 0.044 µM
B1: IL6R-P577/IL6R-L (antibody)
chain 1: QVQLQESGPGLVKPSETLSLTCAVSGHSISHDHAWSWVRQPPGEGLEWIGFISYSGITNYNPSLQGRVTISRDNSKNTLYLQMNSLRAEDTAVYYCARSLARTTAMDYWGEGTLVTVSSASTKGPSVFPLAPSSKSTSGGTAALGCLVKDYFPEPVTVSWNSGALTSGVHTFPAVLQSSGLYSLSSVVTVPSSSLGTQTYICNVNHKPSNTKVDKKVEPKSCDKTHTCPPCPAPDLLGDDSVFLFPPKPKDTLMISRTPEVTCVVIDVAEEDGEVKFNWYVDGVEVHNAKTKPREEQDNSTYRVVSVLTVLHQDWLNGKEYKCKVSNKALPRPIEKTISKAKGQPREPQVYTLPPSRDELTKNQVSLTCLVKGFYPSDIAVEWESNGQPENNYKTTPMVLDSDGSFFLYSKLTVDKSRWQQGNVFSCSVMHEALHNHYTQKSLSLSP
chain 2: not shown

Kd [5]: 10 µM
Kd [6]: 1.5 µM
Kd [7]: 310 µM
Kd [8]: 95 µM
Kd [9]: 73 µM
B2: IL6R-P730/IL6R-L (antibody)
chain 1: B1 chain 1 with D239Q, A269R, E270P, D298E, R332A, M398P
chain 2: not shown

Kd [5]: 2.8 µM
Kd [6]: 0.41 µM
Kd [7]: 200 µM
Kd [8]: 61 µM
Kd [9]: 47 µM
B3: IL6R-P694/IL6R-L (antibody)
chain 1: B1 chain 1 with D239G, A269R, D298E, R332A, M398P
chain 2: not shown

Kd [5]: 4 µM
Kd [6]: 0.57 µM
Kd [7]: 170 µM
Kd [8]: 54 µM
Kd [9]: 44 µM
B4: IL6R-P702/IL6R-L (antibody)
chain 1: B1 chain 1 with D239G, F243M, A269R, D298Y, R332A, M398P
chain 2: not shown

Kd [10]: 0.028 µM
Kd [1]: 0.015 µM
Kd [2]: 28 µM
Kd [3]: 12 µM
Kd [4]: 0.71 µM
Kd [11]: 0.00021 µM
Kd [12]: 1.2 µM
Kd [13]: 0.00071 µM
Kd [14]: 32 µM
Kd [15]: 14 µM
B5: IL6R-P587/IL6R-L (antibody)
chain 1: B1 chain 1 with D239G, D298Y, R332A, M398P
chain 2: not shown

Kd [5]: 3.4 µM
Kd [6]: 0.68 µM
Kd [7]: 300 µM
Kd [8]: 71 µM
Kd [9]: 82 µM
B6: IL6R-P712/IL6R-L (antibody)
chain 1: B1 chain 1 with D239G, A269R, E270P, D298E, R332A, M398P
chain 2: not shown

Kd [16]: 24 µM
Kd [17]: 1.7 µM
Kd [18]: 66 µM
Kd [19]: 180 µM
Kd [20]: 0.5 µM
B7: IL6R-P625/IL6R-L (antibody)
chain 1: B1 chain 1 with L236K, D239G, D298Y, R332A, M398P
chain 2: not shown

Kd [5]: 4.1 µM
Kd [6]: 0.69 µM
Kd [7]: 250 µM
Kd [8]: 57 µM
Kd [9]: 65 µM
B8: IL6R-P699/IL6R-L (antibody)
chain 1: B1 chain 1 with D239G, A269R, E270P, D298Y, R332A, M398P
chain 2: not shown

binding result [21]: no binding
binding result [22]: no binding
B9: VH3/L(WT)-mIgG1 (antibody)
chain 1: QVQLQESGPGLVKPSETLSLTCAVSGHSISHDHAWSWVRQPPGEGLEWIGFISYSGITNYNPSLQGRVTISRDNSKNTLYLQMNSLRAEDTAVYYCARSLARTTAMDYWGEGTLVTVSSAKTTPPSVYPLAPGSAAQTNSMVTLGCLVKGYFPEPVTVTWNSGSLSSGVHTFPAVLQSDLYTLSSSVTVPSSTWPSETVTCNVAHPASSTKVDKKIVPRDCGCKPCICTVPEVSSVFIFPPKPKDVLTITLTPKVTCVVVDISKDDPEVQFSWFVDDVEVHTAQTQPREEQFNSTFRSVSELPIMHQDWLNGKEFKCRVNSAAFPAPIEKTISKTKGRPKAPQVYTIPPPKEQMAKDKVSLTCMITDFFPEDITVEWQWNGQPAENYKNTQPIMDTDGSYFVYSKLNVQKSNWEAGNTFTCSVLHEGLHNHHTEKSLSHSPGK
chain 2: not shown
